B1: L74N (designed binder)
chain: MTLQELLREEALRRAEAEAFRYALELLAEKFPEQKEYLLDLAEEIESQIRSLSGVDVEDVRKFLDKEWAWVKENLAEHPAELAEVEAARAARLAELRAEVEAKVAA
B2: E25R (designed binder)
chain: MTLQELLREEALRRAEAEAFRYALRLLAEKFPEQKEYLLDLAEEIESQIRSLSGVDVEDVRKFLDKEWAWVKELLAEHPAELAEVEAARAARLAELRAEVEAKVAA
B3: A28S (designed binder)
chain: MTLQELLREEALRRAEAEAFRYALELLSEKFPEQKEYLLDLAEEIESQIRSLSGVDVEDVRKFLDKEWAWVKELLAEHPAELAEVEAARAARLAELRAEVEAKVAA
B4: L27N (designed binder)
chain: MTLQELLREEALRRAEAEAFRYALELNAEKFPEQKEYLLDLAEEIESQIRSLSGVDVEDVRKFLDKEWAWVKELLAEHPAELAEVEAARAARLAELRAEVEAKVAA
B5: V60G (designed binder)
chain: MTLQELLREEALRRAEAEAFRYALELLAEKFPEQKEYLLDLAEEIESQIRSLSGVDVEDGRKFLDKEWAWVKELLAEHPAELAEVEAARAARLAELRAEVEAKVAA
B6: F31S (designed binder)
chain: MTLQELLREEALRRAEAEAFRYALELLAEKSPEQKEYLLDLAEEIESQIRSLSGVDVEDVRKFLDKEWAWVKELLAEHPAELAEVEAARAARLAELRAEVEAKVAA
B7: L75Q (designed binder)
chain: MTLQELLREEALRRAEAEAFRYALELLAEKFPEQKEYLLDLAEEIESQIRSLSGVDVEDVRKFLDKEWAWVKELQAEHPAELAEVEAARAARLAELRAEVEAKVAA
B8: P79A (designed binder)
chain: MTLQELLREEALRRAEAEAFRYALELLAEKFPEQKEYLLDLAEEIESQIRSLSGVDVEDVRKFLDKEWAWVKELLAEHAAELAEVEAARAARLAELRAEVEAKVAA
B9: E5C (designed binder)
chain: MTLQCLLREEALRRAEAEAFRYALELLAEKFPEQKEYLLDLAEEIESQIRSLSGVDVEDVRKFLDKEWAWVKELLAEHPAELAEVEAARAARLAELRAEVEAKVAA
B10: A23S (designed binder)
chain: MTLQELLREEALRRAEAEAFRYSLELLAEKFPEQKEYLLDLAEEIESQIRSLSGVDVEDVRKFLDKEWAWVKELLAEHPAELAEVEAARAARLAELRAEVEAKVAA
B11: E10S (designed binder)
chain: MTLQELLRESALRRAEAEAFRYALELLAEKFPEQKEYLLDLAEEIESQIRSLSGVDVEDVRKFLDKEWAWVKELLAEHPAELAEVEAARAARLAELRAEVEAKVAA
B12: R61F (designed binder)
chain: MTLQELLREEALRRAEAEAFRYALELLAEKFPEQKEYLLDLAEEIESQIRSLSGVDVEDVFKFLDKEWAWVKELLAEHPAELAEVEAARAARLAELRAEVEAKVAA
B13: A69C (designed binder)
chain: MTLQELLREEALRRAEAEAFRYALELLAEKFPEQKEYLLDLAEEIESQIRSLSGVDVEDVRKFLDKEWCWVKELLAEHPAELAEVEAARAARLAELRAEVEAKVAA
B14: Y37D (designed binder)
chain: MTLQELLREEALRRAEAEAFRYALELLAEKFPEQKEDLLDLAEEIESQIRSLSGVDVEDVRKFLDKEWAWVKELLAEHPAELAEVEAARAARLAELRAEVEAKVAA
B15: A69D (designed binder)
chain: MTLQELLREEALRRAEAEAFRYALELLAEKFPEQKEYLLDLAEEIESQIRSLSGVDVEDVRKFLDKEWDWVKELLAEHPAELAEVEAARAARLAELRAEVEAKVAA
B16: A80I (designed binder)
chain: MTLQELLREEALRRAEAEAFRYALELLAEKFPEQKEYLLDLAEEIESQIRSLSGVDVEDVRKFLDKEWAWVKELLAEHPIELAEVEAARAARLAELRAEVEAKVAA
B17: E67H (designed binder)
chain: MTLQELLREEALRRAEAEAFRYALELLAEKFPEQKEYLLDLAEEIESQIRSLSGVDVEDVRKFLDKHWAWVKELLAEHPAELAEVEAARAARLAELRAEVEAKVAA
B18: A106H (designed binder)
chain: MTLQELLREEALRRAEAEAFRYALELLAEKFPEQKEYLLDLAEEIESQIRSLSGVDVEDVRKFLDKEWAWVKELLAEHPAELAEVEAARAARLAELRAEVEAKVAH
B19: W70C (designed binder)
chain: MTLQELLREEALRRAEAEAFRYALELLAEKFPEQKEYLLDLAEEIESQIRSLSGVDVEDVRKFLDKEWACVKELLAEHPAELAEVEAARAARLAELRAEVEAKVAA
B20: V57A (designed binder)
chain: MTLQELLREEALRRAEAEAFRYALELLAEKFPEQKEYLLDLAEEIESQIRSLSGVDAEDVRKFLDKEWAWVKELLAEHPAELAEVEAARAARLAELRAEVEAKVAA
B21: A87G (designed binder)
chain: MTLQELLREEALRRAEAEAFRYALELLAEKFPEQKEYLLDLAEEIESQIRSLSGVDVEDVRKFLDKEWAWVKELLAEHPAELAEVEGARAARLAELRAEVEAKVAA
B22: A23E (designed binder)
chain: MTLQELLREEALRRAEAEAFRYELELLAEKFPEQKEYLLDLAEEIESQIRSLSGVDVEDVRKFLDKEWAWVKELLAEHPAELAEVEAARAARLAELRAEVEAKVAA
B23: K103A (designed binder)
chain: MTLQELLREEALRRAEAEAFRYALELLAEKFPEQKEYLLDLAEEIESQIRSLSGVDVEDVRKFLDKEWAWVKELLAEHPAELAEVEAARAARLAELRAEVEAAVAA
B24: E29S (designed binder)
chain: MTLQELLREEALRRAEAEAFRYALELLASKFPEQKEYLLDLAEEIESQIRSLSGVDVEDVRKFLDKEWAWVKELLAEHPAELAEVEAARAARLAELRAEVEAKVAA
B25: V85E (designed binder)
chain: MTLQELLREEALRRAEAEAFRYALELLAEKFPEQKEYLLDLAEEIESQIRSLSGVDVEDVRKFLDKEWAWVKELLAEHPAELAEEEAARAARLAELRAEVEAKVAA
B26: V60I (designed binder)
chain: MTLQELLREEALRRAEAEAFRYALELLAEKFPEQKEYLLDLAEEIESQIRSLSGVDVEDIRKFLDKEWAWVKELLAEHPAELAEVEAARAARLAELRAEVEAKVAA
B27: M1K (designed binder)
chain: KTLQELLREEALRRAEAEAFRYALELLAEKFPEQKEYLLDLAEEIESQIRSLSGVDVEDVRKFLDKEWAWVKELLAEHPAELAEVEAARAARLAELRAEVEAKVAA
B28: E10N (designed binder)
chain: MTLQELLRENALRRAEAEAFRYALELLAEKFPEQKEYLLDLAEEIESQIRSLSGVDVEDVRKFLDKEWAWVKELLAEHPAELAEVEAARAARLAELRAEVEAKVAA
B29: L96A (designed binder)
chain: MTLQELLREEALRRAEAEAFRYALELLAEKFPEQKEYLLDLAEEIESQIRSLSGVDVEDVRKFLDKEWAWVKELLAEHPAELAEVEAARAARLAEARAEVEAKVAA
B30: L27H (designed binder)
chain: MTLQELLREEALRRAEAEAFRYALELHAEKFPEQKEYLLDLAEEIESQIRSLSGVDVEDVRKFLDKEWAWVKELLAEHPAELAEVEAARAARLAELRAEVEAKVAA
B31: D59E (designed binder)
chain: MTLQELLREEALRRAEAEAFRYALELLAEKFPEQKEYLLDLAEEIESQIRSLSGVDVEEVRKFLDKEWAWVKELLAEHPAELAEVEAARAARLAELRAEVEAKVAA
B32: A28C (designed binder)
chain: MTLQELLREEALRRAEAEAFRYALELLCEKFPEQKEYLLDLAEEIESQIRSLSGVDVEDVRKFLDKEWAWVKELLAEHPAELAEVEAARAARLAELRAEVEAKVAA
B33: F63M (designed binder)
chain: MTLQELLREEALRRAEAEAFRYALELLAEKFPEQKEYLLDLAEEIESQIRSLSGVDVEDVRKMLDKEWAWVKELLAEHPAELAEVEAARAARLAELRAEVEAKVAA
B34: P32A (designed binder)
chain: MTLQELLREEALRRAEAEAFRYALELLAEKFAEQKEYLLDLAEEIESQIRSLSGVDVEDVRKFLDKEWAWVKELLAEHPAELAEVEAARAARLAELRAEVEAKVAA

Molecular target: T1, TNFR1 (Homo sapiens, UniProt P19438)
T1 chain: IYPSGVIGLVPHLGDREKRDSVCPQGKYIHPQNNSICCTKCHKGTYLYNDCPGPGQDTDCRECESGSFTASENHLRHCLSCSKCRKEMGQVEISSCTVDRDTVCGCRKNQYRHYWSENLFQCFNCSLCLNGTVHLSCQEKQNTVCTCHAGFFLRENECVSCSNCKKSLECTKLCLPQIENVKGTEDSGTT
Assay: yeast display SC50

| Binder | apparent Kd (screen) [pM] |
| --- | --- |
| B1 | 1270 |
| B2 | 490 |
| B3 | 790 |
| B4 | 490 |
| B5 | 1540 |
| B6 | 956 |
| B7 | 790 |
| B8 | 718 |
| B9 | 790 |
| B10 | 446 |
| B11 | 2250 |
| B12 | 1050 |
| B13 | 405 |
| B14 | 16700 |
| B15 | 653 |
| B16 | 593 |
| B17 | 335 |

| Binder | apparent Kd (screen) [pM] |
| --- | --- |
| B18 | 718 |
| B19 | 2730 |
| B20 | 490 |
| B21 | 869 |
| B22 | 490 |
| B23 | 718 |
| B24 | 539 |
| B25 | 1050 |
| B26 | 653 |
| B27 | 490 |
| B28 | 7780 |
| B29 | 2730 |
| B30 | 869 |
| B31 | 539 |
| B32 | 2250 |
| B33 | 1160 |
| B34 | 653 |
